41 sequences from the nanobody polyreactivity screen of Harvey et al. (2022) can be followed below.

This data set is described as follows: yeast display, Sf9 membrane polyspecificity reagent, FACS + sequencing; frameworks hold sequencing errors. In a few lines: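 After 36–48 hours of galactose induction, yeast (Saccharomyces cerevisiae BJ5465) displaying a synthetic nanobody library were stained at 4 °C for 1 hour with 10% biotinylated, detergent-solubilized Sf9 membrane reagent. Streptavidin microbeads enriched the stained cells before FACS sorting into low and high (top ~1%) gates on anti-HA and streptavidin fluorescence. Each clone's polyreactivity label reflects its gate of origin.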
Turning to “QVQLVESGGGLVQAGGSLRLRCAASGFTFQNYVMGWYRQAPGKESELVAAINSGGRTYYADSVKGRFTISRDYANNTVYLQMNSLKPEDTAVYFCKDRRGHYWGQGTQVTVSS”, the “polyreactivity (PSR sort gate)” value is reported as “high polyreactivity”. With “QVQLVESGGGLVQAGGSLRLSCAASGRTFKLNAMGWYRQAPGKERELVAGITRTGDSTYYADSVKGRFTISRDNAKNTVYLQMNSLKPEDTAVYYCAKDGPWKFIYDYWGQGTQVTVSS” the entry was “low polyreactivity”; with “QVQLEESGGGLVQAGGSLRLSCADSGSTLYWNAMGWYRQAPGKERELVAVISESGGTTYYADSVKGRFTISRDNAKNTVYLQMNSLKPEDTAVYYCAAVWYYQFGVWGYYWGQGTQVTVSS”, “low polyreactivity”. Regarding “QVQLVESGGGLVQAGGSLRLSSAASGSTIYYYAMGLYRQAPGKEREFVATITQSGGSTYYADSVKGRFTISRDNAKNTVYLQMNSLKPEDTAVYYCAADSWEVDEADIYNSWGQGSQVTVSS”, the “polyreactivity (PSR sort gate)” value is on record as “low polyreactivity”. As for “QVQLVESGGGLVQAGGSLRLSCAASGLTFWRYVMGWYRQAPGKERELVATISIGGSTNYADSVKGRVTISRDNAKNTVYLQMNSLKPEDTAVYYCAAKFRGDVFPYYYWGQGTQVTVSS”, the entry is “high polyreactivity”; as for “QVQLVESGGGLVQAGGSLRLSCAASGSTFLSYAMGWYRQAPGKEREMVAAISYSAGSTYYADSVKGRFTISRDNAKNTVYLQMNSLKPEDTAVYYCGAVQLVPGYVDSNDYYWGQGTQVTVSS”, “low polyreactivity”.

Turning to “QVQLVESGGGLVQAGGSLRLSCAASGTFYGNTMGWYRQAPGKERELVAVISIDVSTNYADSVKGRFTISRDNAKNTVYLQMNSLKPEDTAVYYCAADYLRQFRDYDYWGQGTQVTVSS”, the “polyreactivity (PSR sort gate)” value is listed as “low polyreactivity”. As for “QVQLVESGGGLVQAGGSLRLICAASGYIFRPNAMGWYRQAPGKERELVASISSGGSTYYADSVKGRFTISRDNAKNTVYLQMNSLKPEDTAVYYCNARHYPWFAAYGSYAYEYWGQGTQVTVSS”, the entry is “low polyreactivity”; as for “QVQLVESGGGLVQAGGSLRLSWAASGFTFKYNAMGLYRQAHGKERELVAAISGSGGRTYYSDSVKGRFTISRDNAKNTVYLQMNSLKPEYTAVYYCAAVYLVTLGARYDYWGQGTQVTVSS”, “high polyreactivity”; as for “QVQLVESGGGLVQAGGSLRLSSAASGRTFAYYAMGWYRQAPGKERELVAAISSAGRTYYADSVKGRFTISRDNAKNTVYLQMNSLKTEDTAVYYCAAEWYYYVIWLYEYWGQGTQVTVSS”, “high polyreactivity”. For “QVQLVESGGALVQAGGSLRISCAASGFTFHKNAMGWYRQAPGKERELVAAITYRGGSTYYADSVKGRFTISRDNAKNTVYLQMNSLKPEDTSVYYCAAELRPYITYDGPRKKFYFWGQGTQVTVSS”, the “polyreactivity (PSR sort gate)” value was “high polyreactivity”. Turning to “QVQLVESGGGLVQAGGSLRLSCAASGSTFKRNVMGWYRQAPGKERELVAAISRSTTSTYYADSVKGRFTISRDNAKNTVYLQMNSLKPEDTAVYYCATPHRYRVDYWGQGTQVTVSS”, the “polyreactivity (PSR sort gate)” value is on record as “high polyreactivity”.

Take “QVQLQESGGGLVQAGGSLRLSCAASGYIFPRIYMGWYRQAPGKEREFDAGISYDAITNYADSVKGRFTISLDNAKNTVYLQMNSLNPEYTAVYYCAVSYYGTPLVTYWGQGTQVTVSS”: the “polyreactivity (PSR sort gate)” value is reported as “high polyreactivity”. With “QVQLVESGGGLVQAGGSLRLSCAASGFTFRYYAMGWYRQAPGKVRELVASITGGGRTYYADSVKGRFTISRDNAKNTVYLQMNSLKPEDTAVYYCATLVAYRLGSGYDSWGQGTQVTVSS” the entry was “high polyreactivity”; with “QVQLGESGGGLVQAGGSLRLSCAASGSTLRNNAMGWYRQAPGKERELVASIRTRGGSTRYADSVKGRFTISRDNAKNTVYLQMNSLKPEDTAVYYCAAQYYGKGWQLDYWGQGSQVTVSS”, “high polyreactivity”. On to “QVQLVESGGGLVQAGGSLRLSCAASGFIFPYYAMGWYRQAPGQERELVAAITGGGSRTYYADSVKGRFTISRDNAKNTVYLQMNSLKPEDTAVYYCAKGLSTGRAYRGYDYWGQGTQVTVSS”, for which the “polyreactivity (PSR sort gate)” value is “high polyreactivity”. With “QVQLVESGGGLVQAGGSLRLSCAASGRTFYGYGMGWYRQAPGKERELVAGISVRGGSTYYADSVKGRFTISRDNAKNTVYLQMNSLKPEDTAVYYCAALGWRPTYYYWGHGTQVTVSS” the entry was “high polyreactivity”; with “QVQLEESAGGLVQAGGSLRLSCAASGSSFTSYAMGWYRQAPGKERELVAAITSGGSTTYADSVKGRFTISRDNEKNTVYLQMNSLKPEDTAVYYCNAKWYGYLTRDAYRYRYTYDYWGQGTQVTVSS”, “low polyreactivity”.

For the sequence “QVQLVESGGGLVQAGGSLRLSCAASGRIFSRNAMGWYRQAPGKERELVAAITRIGGSTYYADSVKGRFTISRDTAKNTVYLQMNSRKPEDTAVYYSAARGSGKYGWGQGTQVTVSS”, the “polyreactivity (PSR sort gate)” value is reported as “high polyreactivity”. As for “QVHLVESGGGLVQAGGSLRLTCAASGIIFRWYAMGWYRQAPGKERELVAAISSGGGRTHYADSVKGRFTISRDNAKNTVYLQMNSLKPEDTAVYYCAAALRGQSSRFDYWGQGTQVTVSS”, the entry is “high polyreactivity”; as for “QVQLVESGGGLVQAGGSLRLSCAASGLTFWVYTMGWYRQAPGKERELVAAITRGGSTTYADSVKGRFTISRDNAKNSVYLQMNSLQPEDTAVYYCNAVYKYSVVYKLDYWGQGTQVTVSS”, “high polyreactivity”; as for “QVQLVDSGGGLVQAGGSLRLTSAASGRIFVRNAMGWYRPAPGKERELVAASSWSSGGTYYADSVKGRFTISRDNAKNRVYLQMNSLKPEETAVYSCIADTSRAGVYWGQGTQVTVSS”, “low polyreactivity”. As to “QVQLVESGGGLVQAGGSLRLSCAASGSTFNRYAMGWYRQAHGKERELVAGISYRGGTYYSDSVKGRFTISRDNAKNTVYLQMNSLKPEDTAVYYCNVVRRGTTSYDDYEYWGQGTQVTVSS”, the “polyreactivity (PSR sort gate)” value is given as “high polyreactivity”.

Regarding “QVQLVESGGGLVQAGGSLRLSCAASGSTFYPNAMGWYRQAPGKERELVAAITSGGSTNYADSVKGRFTISRDNAKNTVYLQMNSLKPEDTAVYYCAAVGKYRIRSDYWGQGTQVTVSS”, the “polyreactivity (PSR sort gate)” value is on record as “low polyreactivity”. As for “QVQLVESGLGLVKAGGSLRLSCAASGNTFDHYVMVWSRQAPGKEPELVASITSGGSTNYADSVKGRFTISRDNAKNTVYLQMNSLKPEDTAVYYCAVSLSYWYEAFTTRIDYYYWGQGTQVTLSS”, the entry is “high polyreactivity”; as for “QVQLVESGGGLVQAGGSLRLSCAASGSIFAYYTMGWYRQAPGKEREFVAAISYSGGSTYYADSVKGRFTISRDNAKNTVYLQMNSLKPEDTAVYYCFPGKTRLYGYWGQGTQVTVSS”, “high polyreactivity”; as for “QVQLVESGGGLVQAGGSLRLSCAASGLTFTHYAMGWYRQAPGKEMELVAAISSGGRTYYADSVKGRFTISRDNAKNTVYLQMNSLKPEDTGVYYCAAVTTVYTKYGYWGQGTQVTVSS”, “high polyreactivity”.

On to “QVQVVESGGGLVQAGGSLRLSCAASGSIFHNNAMGWYRQAPGKERELVASITSRGGSTYYADSVKGRFTISRDNAKNTVYLQMNSLKPEDTAVYYCAARPYARVKTHGYWGQGTQVSVSS”, for which the “polyreactivity (PSR sort gate)” value is recorded as “low polyreactivity”. With “HVQLVESGGGLVQAGGSLRLSCAASGSTFTVNAMGWYRQAPGKERELVAAISASGGRTYYADSVKGRFTISRDNAKNTVYLQMNSLKPEDTAVYYCAARFRTWGNREAGYYWGQGTQVTVSS” the entry was “high polyreactivity”. As for “QVQLVESGGGLVQAGGSLRLSCAASGIIFLDNAMVWYRQAPGKERELVAAITTGGITYYADSVKGRFTISRDNAKNTVYLQMNSLKPEDTAVYYCAADNEWPRYDYWGQGTQVTVSS”, the entry is “low polyreactivity”; as for “QVQLVESGGGLVQAGGSLRLSCAASGFTFYYYTMGWYRQAPGKEREFVAAITSSGGRTNYADSVKGRFTISRDNAKNIVYLQMNRLKPEDTAVYYCAATYIRYDHYRPRGGYWGQGTQVTVSS”, “high polyreactivity”; as for “QVQLVESGGGLFHAGGSLRLSFAASGSILYNAMGWYRQAPGKERELVAAIDSTSVDTYYADSVKGRFTISRDNAKNTVYLQMNSLKPEDTAVYYCSADYVYDDEGDFWGQGTQVTVSS”, “high polyreactivity”.

“QVQLVESVGGLVQAGGSLRLSCAASGRTFVGNTMGWYRQAPGKERELVAAISGSGSRTYYADSVKGRFTISRDNAKNTVYLQMNSLKPEDTGVYYCASQGNYWGQGTQVTVSS”: the “polyreactivity (PSR sort gate)” value is “high polyreactivity”. For “QVQLVESGGGLVQAGGSLRLSCADSVFTFGYYAMGWYRQAPGKERELVAAISRNGGRTYYADSVKGRFTISRDNAKNNVYLQMNSLKTVYTAVHYCNALLFFLNRVWSFDYWGQGTQVTVSS”, the “polyreactivity (PSR sort gate)” value is listed as “high polyreactivity”. As for “QVQLVESGGGLVQAGGSLRLSCAASGSIFSSYTMGWYRPAPGKERELLAAISSTGSTYYADSVKGRFTISRDNAKNTVYLQMNSLKPEDTAVYYCAARGWYWQQYKGHTRYDYWGQGTQVTVSS”, the entry is “high polyreactivity”; as for “QVQLVESGGGLVQAGGCLRLSCAASGSTFPIYDMGWYRQAPGKERELVAAITYSGGSTNYADSVKRRFTNSRDNAKTSVYFQMNSLKPDDTAVYYCAARYTAYIQSGMGYWGQGSQVTVSS”, “high polyreactivity”. As for “QLQLQESGGGLVQAGGSLRLSCAASGNISVTGFMGWYRQAPGKERELVASIGIGGTTYYADSVKGRFSISRDNAKNTVYLQMNSLKPEDTAVYYCAARYLYYAYSYWGQGTQVTVSS”, the entry is “low polyreactivity”; as for “QVQLVESVGGLVQAGGSLRLSCAASGSIFTENAMGWYRQAPGKERELVATITITGSTNYADSVKGRFTISRDNAKNTFYLQMNSLKPEDTEVYYCNADLYIAFSASAYDYWGQGTQVTVSS”, “low polyreactivity”.

“QVQLVESGGGLVQAGGSHRLSCAASGITFARYAIGWSRQAPGKEREFLAAISWSGGNTYYADSVKGRFTISRDYAKNTVYLQLNSLKTEDTAVYYCAAESKGSWRYYYRFYYWGQGTQVTVSS”: the “polyreactivity (PSR sort gate)” value is reported as “high polyreactivity”.

On to “QVQLVESGGGLVQAGGSLRLSCAASGSIFYIYAMGWYRQAPGKETELVASISRSGGSTYYADSVKGRFTISRDNAKNTVYLQMNSLKPEDTAVYYCAAVITFYRYPPGETYYYWGQGTQVTVSS”, for which the “polyreactivity (PSR sort gate)” value is given as “high polyreactivity”. Consider “QVQLVESGAALVQAGGSLRLSCAASGFIIYDYMGWYRQAPGKERELVAVISYSGSSTYYADSVKGRFTISRDNAKNTDYLQMNSLKPEDTAVYYCAARNVNGWDYDYWGLGTQVTVSS”, for which the “polyreactivity (PSR sort gate)” value is given as “low polyreactivity”.
